The target of this assay is human P2X4 (human) (UniProt Q99571). Kind of assay: cell-based or functional assay.
Sequence of human P2X4 (human) (Q99571 whole entry): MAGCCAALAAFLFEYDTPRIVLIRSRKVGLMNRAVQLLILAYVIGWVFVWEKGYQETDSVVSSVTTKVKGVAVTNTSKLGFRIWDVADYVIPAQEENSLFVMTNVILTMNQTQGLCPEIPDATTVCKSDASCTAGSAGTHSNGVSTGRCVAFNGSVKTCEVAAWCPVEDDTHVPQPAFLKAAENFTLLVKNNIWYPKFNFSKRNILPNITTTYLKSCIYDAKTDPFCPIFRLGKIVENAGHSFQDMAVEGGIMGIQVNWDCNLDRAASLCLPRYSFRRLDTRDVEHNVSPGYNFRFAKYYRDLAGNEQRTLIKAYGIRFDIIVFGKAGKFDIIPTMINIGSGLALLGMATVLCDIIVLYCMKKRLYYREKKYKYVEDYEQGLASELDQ

isotype control IgG NIP 228 (antibody) had a Fraction of control at human P2X4 (Exp 1), mean, at 7.8 µM; QPatch electrophysiology, ATP-evoked currents (fraction of control) of 1.4 and a Fraction of control at human P2X4 (Exp 2), mean, at 7.8 µM; QPatch electrophysiology, ATP-evoked currents (fraction of control) of 1.36.

The values above are taken from US10829540.
